{
  "source": "patent US20160297851A1",
  "about": "“BROAD SPECTRUM […]” (priority 2012, published 2016)",
  "binders": {"B1": {"name": "arylomycin C16 (peptide)", "peptide": "SAGXAY", "modifications": "here or on the partner: C16 fatty acyl (palmitoyl) tail on the N-terminus of N-methyl-D-Ser2; D-Ala3; N-methyl-4-hydroxyphenylglycine (MeHpg) at 5, written X; biaryl bridge between MeHpg5 and Tyr7 (macrocycle MeHpg5-Ala6-Tyr7); free C-terminal carboxyl; the filing counts the lipid tail as position 1"}},
  "key": {"[1]": {"molecular_target": "P. aeruginosa PAO1 SPase (LepB) P84L, in the bacteria (P. aeruginosa), Q9I5G7", "experiment": "cell-based or functional assay"}, "[2]": {"molecular_target": "E. coli SPase with each of the other 19 amino acids at residue 84, in mutant strains of E. coli", "experiment": "cell-based or functional assay"}},
  "data": [
    {"binder": "B1", "values": [
      {"measurement": "MIC", "setting": "[1]", "result": 8, "unit": "µg/mL"},
      {"measurement": "MIC", "setting": "[2]", "result": "< 16", "unit": "µg/mL"}
    ]}
  ]
}
